Measured values taken from US20240148829A1.

Legend:
[1] = biological target: human IgE (human) (UniProt P01854); experiment: ELISA relative potency; GI-301 dialyzed into 10 mM His/HCl pH 6.7, 250 mM proline
[2] = biological target: human IgE (human) (UniProt P01854); experiment: ELISA relative potency; GI-301 dialyzed into 10 mM His/HCl pH 6.7, 250 mM mannitol
[3] = biological target: human IgE (human) (UniProt P01854); experiment: ELISA relative potency; GI-301 dialyzed into 10 mM Tris/HCl pH 7.4, 250 mM proline
[4] = biological target: human IgE (human) (UniProt P01854); experiment: ELISA relative potency; GI-301 dialyzed into 10 mM His/HCl pH 6.7, 250 mM trehalose
[5] = biological target: human IgE (human) (UniProt P01854); experiment: ELISA relative potency; GI-301 dialyzed into 10 mM Tris/HCl pH 7.4, 250 mM mannitol
[6] = biological target: human IgE (human) (UniProt P01854); experiment: ELISA-based potency on human IgE; GI-301 100 mg/mL, 250 mM proline, histidine/HCl pH 6.7, no additive; after 35° C., 200 rpm, 5 days; n=2
[7] = biological target: human IgE (human) (UniProt P01854); experiment: ELISA-based potency on human IgE; GI-301 100 mg/mL, 250 mM proline, histidine/HCl pH 6.7, no additive; after 35° C., 200 rpm, 14 days; n=2
[8] = biological target: human IgE (human) (UniProt P01854); experiment: ELISA-based potency on human IgE; GI-301 100 mg/mL, 250 mM proline, histidine/HCl pH 6.7, 0.1 w/v % Tween 80; after 35° C., 200 rpm, 5 days; n=2
[9] = biological target: human IgE (human) (UniProt P01854); experiment: ELISA-based potency on human IgE; GI-301 100 mg/mL, 250 mM proline, histidine/HCl pH 6.7, 0.1 w/v % Tween 80; after 35° C., 200 rpm, 14 days; n=2
[10] = biological target: human IgE (human) (UniProt P01854); experiment: ELISA-based potency on human IgE; GI-301 100 mg/mL, 250 mM proline, histidine/HCl pH 6.7, 20 mg/mL methionine; after 35° C., 200 rpm, 5 days; n=2
[11] = biological target: human IgE (human) (UniProt P01854); experiment: ELISA-based potency on human IgE; GI-301 100 mg/mL, 250 mM proline, histidine/HCl pH 6.7, 20 mg/mL methionine; after 35° C., 200 rpm, 14 days; n=2
[12] = biological target: human IgE (human) (UniProt P01854); experiment: ELISA-based potency on human IgE; GI-301 100 mg/mL, 250 mM proline, histidine/HCl pH 6.7, no additive; after light stress (7.5 hours, 750 W/m^2); n=2
[13] = biological target: human IgE (human) (UniProt P01854); experiment: ELISA-based potency on human IgE; GI-301 100 mg/mL, 250 mM proline, histidine/HCl pH 6.7, 0.1 w/v % Tween 80; after light stress (7.5 hours, 750 W/m^2); n=2
[14] = biological target: human IgE (human) (UniProt P01854); experiment: ELISA-based potency on human IgE; GI-301 100 mg/mL, 250 mM proline, histidine/HCl pH 6.7, 20 mg/mL methionine; after light stress (7.5 hours, 750 W/m^2); n=2
[15] = biological target: human IgE (human) (UniProt P01854); experiment: ELISA-based potency on human IgE; GI-301 100 mg/mL, 250 mM proline, histidine/HCl pH 6.7, 0.1 w/v % Tween 80 and 20 mg/mL methionine; after 35° C., 200 rpm, 5 days; n=2
[16] = biological target: human IgE (human) (UniProt P01854); experiment: ELISA-based potency on human IgE; GI-301 100 mg/mL, 250 mM proline, histidine/HCl pH 6.7, 0.1 w/v % Tween 80 and 20 mg/mL methionine; after 35° C., 200 rpm, 14 days; n=2
[17] = biological target: human IgE (human) (UniProt P01854); experiment: ELISA-based potency on human IgE; GI-301 100 mg/mL, 250 mM proline, histidine/HCl pH 6.7, 0.1 w/v % Tween 80 and 20 mg/mL methionine; after light stress (7.5 hours, 750 W/m^2); n=2

UniProt P01854, sequence (P01854 other isoform, or with tags, fused parts or gaps): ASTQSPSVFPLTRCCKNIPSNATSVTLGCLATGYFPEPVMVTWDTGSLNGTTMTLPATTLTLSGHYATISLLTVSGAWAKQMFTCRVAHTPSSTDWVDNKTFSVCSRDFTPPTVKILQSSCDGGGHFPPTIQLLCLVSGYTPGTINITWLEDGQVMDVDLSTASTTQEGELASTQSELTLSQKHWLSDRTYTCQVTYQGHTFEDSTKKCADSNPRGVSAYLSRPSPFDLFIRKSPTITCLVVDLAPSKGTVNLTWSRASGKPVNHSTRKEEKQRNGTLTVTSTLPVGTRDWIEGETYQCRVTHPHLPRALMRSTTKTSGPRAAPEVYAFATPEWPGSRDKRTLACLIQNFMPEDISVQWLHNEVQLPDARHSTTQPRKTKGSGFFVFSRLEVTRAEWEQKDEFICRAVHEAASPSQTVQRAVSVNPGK

potency ELISA [%] (relative potency) [1]: 101%
potency ELISA [%] (relative potency) [2]: 98%
potency ELISA [%] (relative potency) [3]: 106%
potency ELISA [%] (relative potency) [4]: 103%
potency ELISA [%] (relative potency) [5]: 92%
relative potency by ELISA [6]: 79.7%
relative potency by ELISA [7]: 105%
relative potency by ELISA [8]: 92.1%
relative potency by ELISA [9]: 80.4%
relative potency by ELISA [10]: 113%
relative potency by ELISA [11]: 74.2%
relative potency by ELISA [12]: 110%
relative potency by ELISA [13]: 110%
relative potency by ELISA [14]: 112%
relative potency by ELISA [15]: 94.3%
relative potency by ELISA [16]: 111%
relative potency by ELISA [17]: 111%
B1: GI-301 (fusion protein dimer comprising FcεRIα ECD and modified Fc region) (Fc fusion, not shown: small tags and cut ends)
chain: VPQKPKVSLNPPWNRIFKGENVTLTCNGNNFFEVSSTKWFHNGSLSEETNSSLNIVNAKFEDSGEYKCQHQQVNESEPVYLEVFSDWLLLQASAEVVMEGQPLFLRCHGWRNWDVYKVIYYKDGEALKYWYENHNISITNATVEDSGTYYCTGKVWQLDYESEPLNITVIKAPREKYWLQSHTQPLGVFLFPPKPKDTLMISRTPEVTCVVVDVSQEDPEVQFNWYVDGVEVHNAKTKPREEQFNSTYRVVSVLTVLHQDWLNGKEYKCKVSNKGLPSSIEKTISKAKGQPREPQVYTLPPSQEEMTKNQVSLTCLVKGFYPSDIAVEWESNGQPENNYKTTPPVLDSDGSFFLYSRLTVDKSRWQEGNVFSCSVMHEALHNHYTQKSLSLSLGK
